The target in assay [1] is T1, AhpC (BthAhpC) (Burkholderia thailandensis, UniProt Q2SWT3).
T1 construct: gene BTH_I2092
The following applies: read-out: Systems / AhpD / Km.

Assay [2] has as its target Alkyl hydroperoxide reductase subunit C (AhpC) of Burkholderia thailandensis E264, GST-tagged (Burkholderia thailandensis E264) (UniProt Q2SWT3).

The source of these data is PMC6626918 (Frontiers in Microbiology, 2019).

Regarding `CC(C)(OO)c1ccccc1` [CHP], the Km in assay [1] came out at 57.6 ± 1.2 µM.

For `CC(C)(C)OO` [t-BOOH], the Km in assay [1] was 60.1 ± 1.8 µM.

Consider “Thioredoxin C (TrxC) of Burkholderia thailandensis E264 (enzyme)”, for which, in assay [2], the Km of AhpC peroxidase activity for TrxC (NADPH consumption at 340 nm; TrxC varied 0-500 μM, 1 μM AhpC, 1 mM CHP, TrxR system) was found to be 147 µM; the Km of AhpC peroxidase activity for TrxC (NADPH consumption at 340 nm; TrxC varied 0-500 μM, 1 μM AhpC, 1 mM H2O2, TrxR system) was 348 µM; the Km of AhpC peroxidase activity for TrxC (NADPH consumption at 340 nm; TrxC varied 0-500 μM, 1 μM AhpC, 1 mM t-BOOH, TrxR system) amounted to 202 µM.
